Biological target: the molecule itself
Assay: SEC; Superdex 200; 5 mg/ml protein; 20 mM Tris-HCl pH 7.5, 300 mM NaCl, 5% glycerol; elution volume compared with standard proteins

B1: MRB1590(10–668) (domain or fragment, T. brucei, UniProt Q57ZF2 10-668, looked up)
chain: YRGGRGGGRGHSHWHNNAPMERGGHMPSNNEGAAISSGSTGFSPLMDFFHSVEGRNYGELRSLTNETYQISENVRCTFLSIQSDPFAPGSQVRLVCPCTFSLEKVLQTTDLAAANPCRRVAAEDFILRSFHAGYRNGIPRRTSGAVQVLRPSQHVLERSTVGLVKAHQQKSGMQAEIEIFARVKLPGHGRRIDGHGAIDIFYNELVPLLEQCVVGLNEEDLHQHVICVHDQEVLRSNLLGAGYVAFVANGAILPRDAGNSDKPLRDNAVPFQSPKSLECSFTLPHSGKTITGMGLPPGLTLIAGGGFHGKSTLLRALEVGIYNHVPDDGRTYVVVDPTAVKIRAEDRRSVHGVDISPFINNLPFGKTTNFFVTADASGSTSQAANIMEALELGSQLLLLDEDTCATNLMYRDALMQMLVPRAQEPITPFVERVADLSQNHGVSSIMVIGGSGQYFPQARVVLVMNAYQISDCTKEAKEIASNSSLPALNPPGDTASVFIPDVNRCFDPDGSFTTVRRRRGREGTKVSGIGTESIRFSEETIDLSMVEQIVEEGQVNAIAQCLALLYDGEPRIVPEMTTKGGALTQLPSPGGVCEIQRGKFNSNFSSMIAGCCSHQHDKRLELRTPSCYLPRGFTSATRHIEIGAALNRLRTLRTVTAKR
notes: MRB1590, Trypanosoma brucei, residues 10-668 (N-terminal truncation of the full length protein); also called MRB1590–AMP–PNP complex; MRB1590-ADP, crystal form 2 (with poly-U); source: E. coli C41(DE3), purified (nickel-nitrilotriacetic acid column)
stoichiometry N: 2
